{"source": "paper doi:10.1101/2021.03.25.436565", "assay_in_all_cases": "EMSA", "key": {"[1]": {"target": "T1, CSB-HD (helicase-like domain) (human, UniProt Q03468 498-1002)", "T1 sequence (Q03468 498-1002)": "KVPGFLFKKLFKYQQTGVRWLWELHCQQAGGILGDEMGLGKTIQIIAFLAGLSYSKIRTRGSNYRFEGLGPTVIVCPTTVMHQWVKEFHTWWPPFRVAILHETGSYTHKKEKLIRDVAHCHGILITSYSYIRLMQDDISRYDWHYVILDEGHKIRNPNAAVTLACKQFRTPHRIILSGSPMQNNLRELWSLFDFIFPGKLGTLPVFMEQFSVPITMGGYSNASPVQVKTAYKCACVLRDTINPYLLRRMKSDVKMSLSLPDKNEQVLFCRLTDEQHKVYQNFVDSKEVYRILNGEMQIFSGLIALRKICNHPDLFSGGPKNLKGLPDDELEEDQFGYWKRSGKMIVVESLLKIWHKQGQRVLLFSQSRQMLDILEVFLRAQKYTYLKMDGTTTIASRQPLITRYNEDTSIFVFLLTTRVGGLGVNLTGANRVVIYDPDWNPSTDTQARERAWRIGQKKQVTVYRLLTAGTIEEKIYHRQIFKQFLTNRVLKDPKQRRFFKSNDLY"}, "[2]": {"target": "T1, CSB-HD (helicase-like domain)", "remark": "listed apart in the source"}, "[3]": {"target": "T1, CSB-HD (helicase-like domain)", "remark": "listed apart in the source"}, "[4]": {"target": "T1, CSB-HD (helicase-like domain)", "remark": "listed apart in the source"}, "[5]": {"target": "T1, CSB-HD (helicase-like domain)", "remark": "listed apart in the source"}}, "note": "Like-named read-outs stand apart in the source and are kept apart here."}
{"molecule": "3'-tailed rDNA", "values": [{"measurement": "Kd", "setting": "[1]", "value": 176, "unit": "pM"}]}
{"molecule": "5'-tailed rDNA, annealed in KCl (intermolecular G4)", "values": [{"measurement": "Kd", "setting": "[1]", "value": 558, "unit": "pM"}]}
{"molecule": "ATAATTATAAATAAATAATGGGGTTTTGGGG (structured_DNA)", "note": "[5'-tailed O. nova d(G4T4G4)]", "values": [{"measurement": "Kd", "setting": "[2]", "value": 9.88, "unit": "pM"}]}
{"molecule": "AAATGGGTGGGTAGGGTGGGTATAATTATAAATAAATAATA (structured_DNA)", "note": "[3'-tailed c-MYC]", "values": [{"measurement": "binding result", "setting": "[3]", "value": "no binding"}]}
{"molecule": "ATAATTATAAATAAATAATAGGGTCGGGGGGTGGGGCCCGGGCCGGGG (structured_DNA)", "note": "[5'-tailed rDNA-2]", "values": [{"measurement": "Kd", "setting": "[4]", "value": 360, "unit": "pM"}]}
{"molecule": "AGGGTCGGGGGGTGGGGCCCGGGCCGGGG (structured_DNA)", "note": "[untailed rDNA-2]", "values": [{"measurement": "binding result", "setting": "[5]", "value": "no binding"}]}
{"molecule": "TGAGGGTGGGTAGGGTGGGTAA (structured_DNA)", "note": "[untailed c-MYC]", "values": [{"measurement": "binding result", "setting": "[5]", "value": "no binding"}]}
{"molecule": "ATAATTATAAATAAATAATAGGGAGGGAGACGGGGGGG (structured_DNA)", "note": "[5'-tailed rDNA-3]", "values": [{"measurement": "Kd", "setting": "[4]", "value": 977, "unit": "pM"}]}
